Results on 13 sequences are retold here after the DeepSol protein solubility set.

A short description of the series: soluble on expression in E. coli; label from the status in PepcDB or PDB records.
For the sequence “MNLYSLLLSLITGCFLLAQGGTSFSSPVETEKSAVTAQSILEKADEIRFPQDSFQVNVAIRTAAPDHAEDLYRYQVLSKGNENSIVMITEPASERGQAILMKGRDLWVFMPSVSQPIRLSLSQRLTGQVANGDIARANFTGDYHPQLLRNESIDDEDYYVLELTGIDRSVTYQKVLLWVNQSNFRPYKAEFYSVSGRLLKTSRYENFDNILGEMRPTRIIMEDALKSGEVSVLDYSDMKLRDLPDKIFTKDYLKRLE”, the “soluble on expression in E. coli” value is “not soluble”.

“MGSDKIHHHHHHMNYKTLVMKILIINQHSMNHGDEAAGKALIRTLYDRGFQDIAVSYNMNDFDASCLFKYKNVKQILPTKKKARGLDKITKLYLKCPCFITRFLTLMYLQRRREVKMIKEANIVISAPGGVNMGLYRDYGYVWRLKEVLYQGKSLVIYSPSIGPFTTNDFFRKIAKEILTRSTFVSLRDTQSYRYAEDLSVHYIQSIDTAYLETPRMDLPLELLNLLPKEYVVLVPNELYSWHIDYFHYDKRSIDRFYSSLIDKFTSNGLTVVLLPQLFYQPNMEDEDYFNRLKAENEKVIVIPTYYDSDIQQAIIKRAQFVVGARYHTIVFSINNETPFVCLSYEHKMKNMLEILSLDSYSIDISYAFENHKIVIDKIWKMYLDRVSVLNVLYDGKKKAKLLARKTFDFLIKKLRSM”: the “soluble on expression in E. coli” value was “not soluble”.

Take “CGKSEAPPPAQTPEVGIVTLEAQTVTLNTELPGRTNAFRIAEVRPQVNGIILKRLFKEGSDVKAGQQLYQIDPATYEADYQSAQANLASTQEQAQRYKLLVADQAVSKQQYADANAAYLQSKAAVEQARINLRYTKVLSPISGRIGRSAVTEGALVTNGQANAMATVQQLDPIYVDVTQPSTALLRLRRELASGQLERAGDNAAKVSLKLEDGSQYPLEGRLEFSEVSVDEGTGSVTIRAVFPNPNNELLPGMFVHAQLQEGVKQKAILAPQQGVTRDLKGQATALVVNAQNKVELRVIKADRVIGDKWLVTEGLNAGDKIITEGLQFVQPGVEVKTVPAKNVASAQKADAAPAKTDSKG”: the “soluble on expression in E. coli” value was “soluble”.

“MKQQGTTLPANNHTLKQYAFFAGMLSSLKKQKWRKGMSESLHLTRNGSILEITLDRPKANAIDAKTSFEMGEVFLNFRDDPQLRVAIITGAGEKFFSAGWDLKAAAEGEAPDADFGPGGFAGLTEIFNLDKPVIAAVNGYAFGGGFELALAADFIVCADNASFALPEAKLGIVPDSGGVLRLPKILPPAIVNEMVMTGRRMGAEEALRWGIVNRVVSQAELMDNARELAQQLVNSAPLAIAALKEIYRTTSEMPVEEAYRYIRSGVLKHYPSVLHSEDAIEGPLAFAEKRDPVWKGR”: the “soluble on expression in E. coli” value is on record as “not soluble”.

With “MSLQNIRFGECINSPYVKPKRVFYTERGIEKSWDVVEAHDSVSVLLFDPKKRAFVLVKQFRPAVFLKGTSGYTYELCAGIVDKPGKSLEVIAQEEILEECGYSLSIDSLERITSFYTSVGFAGSRQTLFYAEVEDSLRQGEGGGVESENIEVVHLPLLEARAFMLDEERPKTPGLLFAFMWFFERHPKNEGHHHHHH”, the “soluble on expression in E. coli” value is on record as “soluble”.

As to “MNDALHIGLPPFLVQANNEPRVLAAPEARMGYVLELVRANIAADGGPFAAAVFERDSGLLIAAGTNRVVPGRCSAAHAEILALSLAQAKLDTHDLSADGLPACELVTSAEPCVMCFGAVIWSGVRSLVCAARSDDVEAIGFDEGPRPENWMGGLEARGITVTTGLLRDAACALLREYNACNGVIYNARCGVHK”, the “soluble on expression in E. coli” value is listed as “soluble”.

Consider “MSSRLARFALSGYRIAGIAAYPFARPYLSYRAAKGKEDKRRRLERFGYASAERPRGPLVWFHAASVGETLALIPLIREIRKRDIFVLLTTGTVTSAELTRTRLGDDVIHQYVPLDIKIAVNRFLTYWAPDAAITAESEIWPVTMMELERRHIPQIRVNARLSDRSFDRWKARHDIAESLFSKLALVVAQSDLDAERFRDLGSWPVVISGNLKGDTDPPPCDEALLESYRKQVGNRKTWAAISTFDGEEKAAATVHAAIKSRNGQLTIIVPRHPERGDDVEAMLKGMNLSVARRSRNDVITPGTDIFLGDSIGEMGLYLRLTELAFVGRSLTAEGGQNPLEPAMLGCAVLSGAHVQNFREAYQKLIRAGGGRIIRDVEMLAKAVHYLLVNDNERYKMIDAGNRVIQDMRGALSSTVKALEPYINPLTVSAKLQPRSAIGSWLEHHHHHH”, for which the “soluble on expression in E. coli” value was “not soluble”.

In the case of “PRLTRRLTGFLPQEIKSIDTMIPLLSRALWNKHQVKKFNKAEDFQDRFIDHVETTLARSLYNCDDMVAYEAASMSIRDNLVIDWNKTQQKFTTRDPKRVYYLSLEFLMGRALDNALINMKIEDPEDPAASKGKPREMIKGALDELGFKLEDVLDQEPDAGLGNGGLGRLAACFVDSMATEGIPAWGYGLRYEYGIFAQKIIDGYQVETPDYWLNSGNPWEIERNEVQIPVTFYGYVDRPEGGKTTLSASQWIGGERVLAVAYDFPVPGFKTSNVNNLRLWQARPTTEFDLNKFNNGDYKNSVAQQQRAESITAVLYPNDNFAQGKELRLKQQYFWCAASLHDILRRFKKSKRPWTEFPDQVAIQLNDTHPTLAIVELQRVLVDLEKLDWHEAWDIVTKTFAYTNHTVMQEALEKWPRRLFGHLLPRHLEIIYDINWFFLEDVAKKFPKDVDLLSRISIIEENSPERQIRMAFLAIVGSHKVNGVVELHSELIKTTIFKDFIKFYGPSKFVNVTNGITPRRWLKQANPSLAKLISETLNDPTEEYLLDMAKLTQLEKYVEDKEFLKKWNQVKLNNKIRLVDLIKKENDGVDIINREYLDDTLFDMQVKRIHEYKRQQLNVFGIIYRYLAMKNMLKNGASIEEVARKYPRKVSIFGGKSAPGYYMAKLIIKLINCVADIVNNDESIEHLLKVVFVADYNVSKAEIIIPASDLSEHISTAGTEASGTSNMKFVMNGGLIIGTVDGANVEITREIGEDNVFLFGNLSENVEELRYNHQYHPQDLPSSLDSVLSYIESGQFSPENPNEFKPLVDSIKYHGDYYLVSDDFESYLATHELVDQEFHNQRSEWLKKSVLSLANVGFFSSDRCIEEYSDTIWNVEPVT”, the “soluble on expression in E. coli” value is “soluble”.

With “MAHHHHHHMELNKLCSFLLRGNISHCENAPTGENAPKGENAQTGENAPKSENPPKSEHSQALFQDASGGKNNDSILDVIKKIPINPFIDSNEDLNKYKYGVEKKKIQRYTGVQVYEEEDKDHKKNQPVDYPFPVSKSVVFEKNKVNKSEDRININYSNIASDLYPEEGFKTPNRKKHFSSDWEMLLAHNHGLYNFKNTDHNTIVNKDMYALNTENDIRNKLNLYVERINVDNPNDACKYLAIEEYKCLLTHSFHMNPDVSNQKCVKWFNEYMQCKWDEHKLNYGYNYIENRRNKKSKAYIAAPDYQYS”, the “soluble on expression in E. coli” value is “not soluble”.

For “MATKFNRILVGVDDSADALLAFDYAIHQAKQDGAELVIISILENDEMNVYQALSKDYIHGERQELEQHILKYQKQAQAAGVTKVHAMIAEGEPGETIVKEVIPHVQPDLLIIGSLAKKGIAKHFGSQAAYMAKYAPISVLVIR”, the “soluble on expression in E. coli” value is “not soluble”.

Regarding “MAKKDEHLRKPEWLKIKLNTNENYTGLKKLMRENNLHTVCEEAKCPNIHECWAVRRTATFMILGSVCTRACRFCAVKTGLPTELDLQEPERVADSVALMNLKHAVITAVARDDQKDGGAGIFAETVRAIRRKSPFTTIEVLPSDMGGNYDNLKTLMDTRPDILNHNIETVRRLTPRVRARATYDRSLEFLRRAKEMQPDIPTKSSIMIGLGETKEEIIEVMDDLLANNVDIMAIGQYLQPTKKHLKVQKYYHPDEFAELKEIAMQKGFSHCEAGPLVRSSYHADEQVNEASKKR”, the “soluble on expression in E. coli” value is on record as “not soluble”.

For “MAESKAKNMFQKLSLTPKRNHEHDAGRNIETEEELLQKLKRLKLDNDYLHMWLSYEKLATIVENRSTDKTRKPEYGKLIFYYQGAAHALVSIWKRDSDLPFEQYISGDIARLFNKALDVAIRHMDPTVVHTIARDGGVALMSIDKPIEARDVLVRGENHLVAVPADGQLDFLERLIVLYYIMDSILIEERWNEYMVYTDKVWMMTMKEDKRCPLLENIIKEVEQVAVLLLVFQRKVECSERHKQLLASYRLDDWKAPIIKHNPPLSSLNPSEQKVFRRFLFYMMSNKRSVDKVLKHR”, the “soluble on expression in E. coli” value is “not soluble”.

In the case of “MEKYEEVLVSIRQIIRAIDLHSKKLSKESGLTAPQLILMRAINELDNVTIKQLSNHTNMSQATATTILDRLERNQLVERRRSVEDKRKVHAVLTEKGEEALRQAPTPLQEHFINRFQKLEEWEQTLLLSSVQRISTMMNAEDIDVAPLLEIGSITKPE”, the “soluble on expression in E. coli” value is given as “not soluble”.
